B1: Uqcrb_IPI:IPI00132347.1 (other, mouse, UniProt Q9D855 2-111, looked up)
chain: AGRSAVSASSKWLDGFRKWYYNAAGFNKLGLMRDDTLHETEDVKEAIRRLPEDLYNDRMLRIKRALDLTMRHQILPKDQWTKYEEDKFYLEPYLKEVIRERKEREEWAKK
B2: Rab5b_IPI:IPI00116563.2 (other, mouse, UniProt P61021 2-215, looked up)
chain: TSRSTARPNGQPQASKICQFKLVLLGESAVGKSSLVLRFVKGQFHEYQESTIGAAFLTQSVCLDDTTVKFEIWDTAGQERYHSLAPMYYRGAQAAIVVYDITNQETFARAKTWVKELQRQASPSIVIALAGNKADLANKRMVEYEEAQAYADDNSLLFMETSAKTAMNVNDLFLAIAKKLPKSEPQNLGGAAGRSRGVDLHEQSQQNKSQCCSN
B3: Uqcrq_IPI:IPI00224210.5 (other, mouse, UniProt Q9CQ69 1-82, looked up)
chain: MGREFGNLARIRHVISYSLSPFEQRAFPSYFSKGIPNVLRRTRERILRVAPPFVVVYLIYTWGNQEFEQSKRKNPAMYENDK
B4: Lyrm7_IPI:IPI00117832.1 (other, mouse, UniProt Q9DA03 1-104, looked up)
chain: MGQPAKVLQLFKTLHRTRQQVFKNDKRALEAARVKINEEFKKHKNETSPEKIKEMMKLGSDVELLLRTAVIQGIHTDHDTLQLVPRKDLLTENVPYCDAPTQKQ
B5: Lyrm4_IPI:IPI00169804.1 (other, mouse, UniProt Q8K215 1-91, looked up)
chain: MAASSRAQVLDLYRAMMRESKHFSAYNYRMYAVRRIRDAFRENKNVKDPVEIQALVNKAKRDLEIIRRQVHIGQLYSTDKLIIENQEKPRT
B6: Iscu_IPI:IPI00110578.1 (other, mouse, UniProt Q9D7P6 36-168, looked up)
chain: YHKKVVDHYENPRNVGSLDKTSKNVGTGLVGAPACGDVMKLQIQVDEKGKIVDARFKTFGCGSAIASSSLATEWVKGKTVEEALTIKNTDIAKELCLPPVKLHCSMLAEDAIKAALADYKLKQESKKEEPEKQ
B7: Cplx2_IPI:IPI00111501.1 (other, mouse, UniProt P84086 1-134, looked up)
chain: MDFVMKQALGGATKDMGKMLGGEEEKDPDAQKKEEERQEALRQQEEERKAKHARMEAEREKVRQQIRDKYGLKKKEEKEAEEKAALEQPCEGSLTRPKKAIPAGCGDEEEEEEESILDTVLKYLPGPLQDMFKK
B8: Rab15_IPI:IPI00170032.1 (other)
chain: MAKQYDVLFRLLLIGDSGVGKTCLLCRFTDNEFHSSHISTIGVDFKMKTIDVDGIKVRIQIWDTAGQERYQTITKQYYRRAQGIFLVYDISSERSYQHIMKWVSDVDEYAPEGVQKILIGNKADEEQKRQVGREQGQQLAKEYGMDFYETSACTNLNIKESFTRLTELVLQAHRKELDGLRTRASNELALAELEEDEGKPEGPANSSKTCWC
modifications: Natural C-terminal geranylgeranylation of the cysteines (CWC motif) in the endogenous protein is not carried by the letters.
B9: Chchd4_IPI:IPI00124389.1 (other, mouse, UniProt Q8VEA4 1-139, looked up)
chain: MSYCRQEGKDRIIFVTKEDHETPSSAELVADDPNDPYEEHGLILPNGDINWNCPCLGGMASGPCGEQFKSAFSCFHYSTEDIKGSDCIDQFRAMQECMQKYPDLYPQDEEEEEEAKPVEPVEETADTKVSAAKEQGTSS
B10: Atp5f1_IPI:IPI00341282.2 (other, mouse, UniProt Q9CQQ7 43-256, looked up)
chain: PLPPLPEYGGKVRLGLIPEEFFQFLYPKTGVTGPYVLGTGLSLYFLSKEIYVITPETFSTISVVGLIVYVIKKYGASFGEFIDKLNEEKIAQLEEVKQSSMKQIQDAIDMEKAQQALVQKRHYLFDVQRNNIALALEVTYRERLHKAYKEVKNRLDYHISVQNMMRRKEEEHMIDWVEKHVVKSISVQQEKETIAKCIEDLKLLAKKAQAQPIM
B11: Tim23 (endogenous, mouse forebrain mitochondria) (other, UniProt Q9WTQ8 1-209, looked up)
chain: MEGGGRSSNKSTSGLAGFFGAGGAGYSNADLAGVPLTGMNPLSPYLNVDPRYLVQDTDEFILPTGANKTRGRFELAFFTIGGCCMTGAAFGAMNGLRLGLKETQSMAWSKPRNVQILNMVTRQGALWANTLGSLALLYSAFGVIIEKTRGAEDDLNTVAAGTMTGMLYKCTGGLRGIARGGLAGLTLTSLYALYNNWVHMKGSLLQQSL
notes: also called Timm23_IPI:IPI00123712.1; Tim23 subunit
B12: Fahd1_IPI:IPI00468850.1 (other, mouse, UniProt Q8R0F8 25-221, looked up)
chain: ADHVKEMRSTVLSEPVLFLKPSTAYAPEGSPVLMPAYCRNLHHEVELGVLLGKRGEAIPEAAAMDYVAGYALCLDMTARDVQEECKKKGLPWTLAKSFTSSCPVSAFVPKEKIPDPHALRLWLKVNGELRQEGKTSSMIFSIPYIISYVSKIITLEEGDLILTGTPKGVGPIKENDEIEAGIDGVVSMRFKVKRSEY
B13: Mrpl43_IPI:IPI00278781.1 (other, mouse, UniProt Q99N89 1-183, looked up)
chain: MTGRGTSSRFLTSVLHNGLGRYVQQLQRLSLSLSRDAPSSRGAREFVEREVTDFARRNPGVVVYVNPRPCAMPRIVAEYLNGAVREENVNSKSVEEIKSLVQKLADQSGLDVIRIRKPFHTDNPSIQGQWTPSPTNGLPSTGCGPENSGILLQLRCKHSKEPGALDRERDRIGSSFGFQAQAE
B14: Cisd3_IPI:IPI00345740.4 (other, mouse, UniProt B1AR13 1-137, looked up)
chain: MGFRRLSFPTDFIFLFPNHICLPALSKPYQRREISSWLARWFPKDPAKPVVAQKTPIRLELVAGKTYRWCVCGRSKNQPFCDGSHFFQRTGLSPLKFKAQETRTVALCTCKATQRPPYCDGTHKSEQVQKAEVGSPL
B15: Rab2a_IPI:IPI00137227.1 (other, mouse, UniProt P53994 2-212, looked up)
chain: AYAYLFKYIIIGDTGVGKSCLLLQFTDKRFQPVHDLTIGVEFGARMITIDGKQIKLQIWDTAGQESFRSITRSYYRGAAGALLVYDITRRDTFNHLTTWLEDARQHSNSNMVIMLIGNKSDLESRREVKKEEGEAFAREHGLIFMETSAKTASNVEEAFINTAKEIYEKIQEGVFDINNEANGIKIGPQHAATNASHGSNQGGQQAGGGCC
B16: Fabp5_IPI:IPI00114162.3 (other, mouse, UniProt Q05816 2-135, looked up)
chain: ASLKDLEGKWRLMESHGFEEYMKELGVGLALRKMAAMAKPDCIITCDGNNITVKTESTVKTTVFSCNLGEKFDETTADGRKTETVCTFQDGALVQHQQWDGKESTITRKLKDGKMIVECVMNNATCTRVYEKVQ
B17: Hint2_IPI:IPI00133034.3 (other, mouse, UniProt Q9D0S9 18-163, looked up)
chain: LAAAGARGAQVRGNAGVSDGSEVAKAQKAAPGGASPTIFSRILDRSLPADILYEDQQCLVFRDVAPQAPVHFLVIPRKPIPRISQAEEDDQQLLGHLLLVAKKIAQAQGLKDGYRLVVNDGKMGAQSVYHLHIHVLGGRQLQWPPG
B18: Ndufa11_IPI:IPI00318645.6 (other, mouse, UniProt Q9D8B4 1-141, looked up)
chain: MVKRFFESYHEVPDGTQCHRKTYITTALGGICGIIGSAYRVSLNPADSTLEAVARVGRYTFTAAAIGAMFGLTTCVSAQVREKPDDPLNYFIGGCAGGLTLGARTHSYGTAAMGCVYMGTAAALFKIGKLEGWELFPTPKV
B19: Mrps33_IPI:IPI00135214.1 (other, mouse, UniProt Q9D2R8 2-106, looked up)
chain: SPLSEYALRMSRLSARIFGEVARSTDSKSMKVVSLFSEQPLAKKKETYDWYPNHNTYFALMGNLRFLGLYRDEHQDFKDEQRRLKKLRGKGKPRKGEGKRATKKK
B20: Synj2bp_IPI:IPI00109206.1 (other, mouse, UniProt Q9D6K5 1-145, looked up)
chain: MNGRVDYLVTEEEINLTRGPSGLGFNIVGGTDQQYVSNDSGIYVSRIKEDGAAAQDGRLQEGDKILSVNGQDLKNLLHQDAVDLFRNAGCAVSLRVQHRLPVQNGPIVHRGEGEPSGVPVAMVLLPVFALTMVAVWAFVRYRKQL

Biological target: T1, GST alone (UniProt P08515 1-218 = GST)
T1 construct: Negative control of the pull-downs; also called control GST
Test: GST pull-down, LC-MS/MS
Protocol: Extracts were spun at 14,000 r.p.m. at 4° C., and clarified supernatants were incubated with glutathione 4B Sepharose beads (GE Healthcare) at 4° C. overnight. The glutathione beads were then washed extensively with ice-cold TNE buffer, and bound proteins were subjected to SDS-PAGE followed by immunoblotting analysis. For the samples subjected to mass spectrometry, glutathione bead-bound proteins from equal amounts (600 μg) of mitochondria were further washed with high stringency RIPA buffer following TNE buffer wash to decrease nonspecific interaction. Proteins were then eluted from the glutathione beads in SDS sample buffer, separated by SDS-PAGE and stained with Coomassie. Proteins in the gel were digested with trypsin and analyzed by mass spectrometry (LC-MS/MS) at the Taplin Biological Mass Spectrometry Facility (Harvard Medical School, Boston, Mass.).

T1 sequence (P08515 whole entry): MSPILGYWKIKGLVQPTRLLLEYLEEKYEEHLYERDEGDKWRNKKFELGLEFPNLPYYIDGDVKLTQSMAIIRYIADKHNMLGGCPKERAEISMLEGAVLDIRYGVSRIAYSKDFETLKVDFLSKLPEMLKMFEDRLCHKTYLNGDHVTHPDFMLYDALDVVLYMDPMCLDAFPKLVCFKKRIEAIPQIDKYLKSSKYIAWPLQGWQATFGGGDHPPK

| Binder | binding result |
| --- | --- |
| B1 | no binding |
| B2 | no binding |
| B3 | no binding |
| B4 | no binding |
| B5 | no binding |
| B6 | no binding |
| B7 | no binding |
| B8 | no binding |
| B9 | no binding |
| B10 | no binding |
| B11 | no binding |
| B12 | no binding |
| B13 | no binding |
| B14 | no binding |
| B15 | no binding |
| B16 | no binding |
| B17 | no binding |
| B18 | no binding |
| B19 | no binding |
| B20 | no binding |

— patent US20200085917A1 (UNIVERSITY OF PITTSBURGH OF THE COMMONWEALTH SYSTEM OF …, published 2020)
